Columns and labels:
Assay in all cases: capture ELISA: Ab1 on anti-human IgG Fc, His-tagged receptor at 0.2 µg/mL, anti-His HRP
[1] = target: T1, hexahistidine tagged human IL-4Rα ECD H107A (human, UniProt P24394 26-232)
T1 construct: not shown: hexahistidine tag
Text: (§1) Example 2d. […] Briefly, thirty surface amino acid residue substitutions were introduced individually into hexahistidine tagged human IL-4Rα extra cellular domain (ECD) as follows: K2D, E6R, K22D, P26R, T31R, F41A, L42G, L43G, E45R, E52R, G56R, D66R, A71R, Q82G, K87D, E94R, H107A, D108R, P124R, D125R, D143R, R148D, L155R, R160D, S164R, S168R, Q181R, P192R, K195D, or H197G. Each mutant protein having a single amino acid residue substitution as described above was transiently expressed in CHO cells and purified using standard immobilized metal affinity chromatography techniques. […] The plates were then washed 3 times with PBST and the exemplified human IL-4Rα antibody was added to the wells at a final concentration of 1 μg/mL in PBS-casein and incubated for 1 hour at room temperature. The plates were washed 3 times with PBST, the IL-4Rα mutant proteins were serially diluted 5-fold from 1 μg/mL for 3 points. in PBS-casein and added to the plate at 50 μL/well and incubated for 1 hour at room temperature. The plates were washed 3 times with PBST and a 1000-fold dilution of anti-histidine tag antibody HRP conjugate (R&D Systems, Cat. #MAB050H) in PBS-casein was added and incubated for 45 minutes at room temperature. The plates were washed 3 times, TMB substrate (Pierce, Cat. #34028) was added per manufacturer instructions, the reaction was quenched with H₂SO₄, and absorbance was read at 450 nm on an ELISA plate reader.

[2] = target: T2, hexahistidine tagged human IL-4Rα ECD E6R (human, UniProt P24394 26-232)
T2 construct: not shown: hexahistidine tag
Text: as §1

[3] = target: T3, hexahistidine tagged human IL-4Rα ECD P192R (human, UniProt P24394 26-232)
T3 construct: not shown: hexahistidine tag
Text: as §1

[4] = target: T4, hexahistidine tagged human IL-4Rα ECD T31R (human, UniProt P24394 26-232)
T4 construct: not shown: hexahistidine tag
Text: as §1

[5] = target: T5, hexahistidine tagged human IL-4Rα ECD Q181R (human, UniProt P24394 26-232)
T5 construct: not shown: hexahistidine tag
Text: as §1

[6] = target: T6, hexahistidine tagged human IL-4Rα ECD E45R (human, UniProt P24394 26-232)
T6 construct: not shown: hexahistidine tag
Text: as §1

[7] = target: T7, hexahistidine tagged human IL-4Rα ECD L155R (human, UniProt P24394 26-232)
T7 construct: not shown: hexahistidine tag
Text: as §1

[8] = target: T8, hexahistidine tagged human IL-4Rα ECD S168R (human, UniProt P24394 26-232)
T8 construct: not shown: hexahistidine tag
Text: as §1

[9] = target: T9, hexahistidine tagged human IL-4Rα ECD K22D (human, UniProt P24394 26-232)
T9 construct: not shown: hexahistidine tag
Text: as §1

[10] = target: T10, hexahistidine tagged human IL-4Rα ECD Q82G (human, UniProt P24394 26-232)
T10 construct: not shown: hexahistidine tag
Text: as §1

[11] = target: T11, hexahistidine tagged human IL-4Rα ECD R160D (human, UniProt P24394 26-232)
T11 construct: not shown: hexahistidine tag
Text: as §1

[12] = target: T12, hexahistidine tagged human IL-4Rα ECD G56R (human, UniProt P24394 26-232)
T12 construct: not shown: hexahistidine tag
Text: as §1

[13] = target: T13, hexahistidine tagged human IL-4Rα ECD A71R (human, UniProt P24394 26-232)
T13 construct: not shown: hexahistidine tag
Text: as §1

[14] = target: T14, hexahistidine tagged human IL-4Rα ECD H197G (human, UniProt P24394 26-232)
T14 construct: not shown: hexahistidine tag
Text: as §1

[15] = target: T15, hexahistidine tagged human IL-4Rα ECD F41A (human, UniProt P24394 26-232)
T15 construct: not shown: hexahistidine tag
Text: as §1

[16] = target: T16, hexahistidine tagged human IL-4Rα ECD L42G (human, UniProt P24394 26-232)
T16 construct: not shown: hexahistidine tag
Text: as §1

[17] = target: T17, hexahistidine tagged human IL-4Rα ECD P26R (human, UniProt P24394 26-232)
T17 construct: not shown: hexahistidine tag
Text: as §1

[18] = target: T18, hexahistidine tagged human IL-4Rα ECD D125R (human, UniProt P24394 26-232)
T18 construct: not shown: hexahistidine tag
Text: as §1

T4 sequence (P24394 26-232 T56R): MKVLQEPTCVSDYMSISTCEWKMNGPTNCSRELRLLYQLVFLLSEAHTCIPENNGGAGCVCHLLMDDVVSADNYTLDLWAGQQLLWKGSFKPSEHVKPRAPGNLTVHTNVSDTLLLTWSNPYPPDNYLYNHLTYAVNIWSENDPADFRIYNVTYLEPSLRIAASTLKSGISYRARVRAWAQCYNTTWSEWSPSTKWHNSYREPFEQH
T2 sequence (P24394 other isoform, or with tags, fused parts or gaps): as the sequence (P24394 26-232 T56R) above, with E6R, R31T counted along it
T14 sequence (P24394 26-232 H222G): as the sequence (P24394 26-232 T56R) above, with R31T, H197G counted along it
T16 sequence (P24394 26-232 L67G): as the sequence (P24394 26-232 T56R) above, with R31T, L42G counted along it
T5 sequence (P24394 26-232 Q206R): as the sequence (P24394 26-232 T56R) above, with R31T, Q181R counted along it
T6 sequence (P24394 26-232 E70R): as the sequence (P24394 26-232 T56R) above, with R31T, E45R counted along it
T11 sequence (P24394 26-232 R185D): as the sequence (P24394 26-232 T56R) above, with R31T, R160D counted along it
T10 sequence (P24394 26-232 Q107G): as the sequence (P24394 26-232 T56R) above, with R31T, Q82G counted along it
T7 sequence (P24394 26-232 L180R): as the sequence (P24394 26-232 T56R) above, with R31T, L155R counted along it
T13 sequence (P24394 26-232 A96R): as the sequence (P24394 26-232 T56R) above, with R31T, A71R counted along it
T18 sequence (P24394 26-232 D150R): as the sequence (P24394 26-232 T56R) above, with R31T, D125R counted along it
T12 sequence (P24394 26-232 G81R): as the sequence (P24394 26-232 T56R) above, with R31T, G56R counted along it
T1 sequence (P24394 26-232 H132A): as the sequence (P24394 26-232 T56R) above, with R31T, H107A counted along it
T3 sequence (P24394 26-232 P217R): as the sequence (P24394 26-232 T56R) above, with R31T, P192R counted along it
T9 sequence (P24394 26-232 K47D): as the sequence (P24394 26-232 T56R) above, with K22D, R31T counted along it
T15 sequence (P24394 26-232 F66A): as the sequence (P24394 26-232 T56R) above, with R31T, F41A counted along it
T17 sequence (P24394 26-232 P51R): as the sequence (P24394 26-232 T56R) above, with P26R, R31T counted along it
T8 sequence (P24394 26-232 S193R): as the sequence (P24394 26-232 T56R) above, with R31T, S168R counted along it

B1: anti-human IL-4Rα antibody Ab1 (antibody, human IgG4 S228P, kappa)
heavy: QVQLVESGGGLVQPGGSLRLSCVASGFTFSHSSMNWVRQAPGKGLEWVSYISRATGAVYYADSVKGRFTISRDNAKNSLYLQMNSLRDEDTAVYYCAREPVFDYWGQGTLVTVSSASTKGPCVFPLAPCSRSTSESTAALGCLVKDYFPEPVTVSWNSGALTSGVHTFPAVLQSSGLYSLSSVVTVPSSSLGTKTYTCNVDHKPSNTKVDKRVESKYGPPCPPCPAPEFLGGPSVFLFPPKPKDTLMISRTPEVTCVVVDVSQEDPEVKFNWYVDGVEVHNAKTKPREEQFNSTYRVVSVLTVLHQDWLNGKEYKCKVSNKGLPSSIEKTISKAKGQPREPQVYTLPPSREEMTKNQVSLTCLVKGFYPSDICVEWESNGQPENNYKTTPPVLDSDGSFFLYSRLTVDKSRWQQGNVFSCSVMHEALHNHYTQKSLSLSLG
light: DIQMTQSPSAMSASVGDRVTITCRASQDISNYLAWFQQKPGKVPTRLIYAASSLQSGVPSRFSGSGSGTEFTLTISSLQPEDFATYYCLQWSSYPRTFGQGTKVEIKRTVAAPSVFIFPPSDEQLKSGTASVVCLLNNFYPREAKVQWKVDNALQSGNSQESVTEQDSKDSTYSLSSTLTLSKADYEKHKVYACEVTHQGLSSPVTKSFNRGEC
notes: human kappa light chain; also called anti-human IL-4Rα Ab1; unconjugated Ab1
- ELISA (OD450) [1]: 1.84 OD450
- ELISA (OD450) [2]: 1.5 OD450
- ELISA (OD450) [3]: 1.75 OD450
- ELISA (OD450) [4]: 1.49 OD450
- ELISA (OD450) [5]: 1.71 OD450
- ELISA (OD450) [6]: 1.86 OD450
- ELISA (OD450) [7]: 1.68 OD450
- ELISA (OD450) [8]: 1.71 OD450
- ELISA (OD450) [9]: 1.3 OD450
- ELISA (OD450) [10]: 1.53 OD450
- ELISA (OD450) [11]: 1.7 OD450
- ELISA (OD450) [12]: 1.7 OD450
- ELISA (OD450) [13]: 1.57 OD450
- ELISA (OD450) [14]: 1.6 OD450
- ELISA (OD450) [15]: 1.54 OD450
- ELISA (OD450) [16]: 1.48 OD450
- ELISA (OD450) [17]: 1.52 OD450
- ELISA (OD450) [18]: 1.61 OD450
